Assay results reported in publication PMC3486911 (PLoS Pathogens, 2012).
“And” between values parts separate entries of the source, which are not always exact repeats. Identical values can stand only once. Like-named read-outs stand apart in the source and are kept apart here.

What was measured:
Assay in all cases: SPR
[1] = target: V2 fHbp (V2.p21), wild type (Neisseria meningitidis) (UniProt E6MV22)
[2] = target: V3 fHbp (V3.p28), wild type (Neisseria meningitidis) (UniProt E6MV22)
[3] = target: V2 fHbp Glu262 mutant (to Ala) (Neisseria meningitidis)
[4] = target: V2 fHbp Lys264 mutant (to Ala) (Neisseria meningitidis)
[5] = target: V2 fHbp Gln191 mutant (to Ala) (Neisseria meningitidis)
[6] = target: V2 fHbp Leu199 mutant (to Ala) (Neisseria meningitidis)
[7] = target: V2 fHbp Thr304 mutant (to Ala) (Neisseria meningitidis)
[8] = target: V2 fHbp Lys268 mutant (to Ala) (Neisseria meningitidis)
[9] = target: V2 fHbp Ser302 mutant (to Ala) (Neisseria meningitidis)
[10] = target: V2 fHbp Val196 mutant (to Ala) (Neisseria meningitidis)
[11] = target: V2 fHbp His203 mutant (to Ala) (Neisseria meningitidis)
[12] = target: V2 fHbp Val311 mutant (to Ala) (Neisseria meningitidis)
[13] = target: V1 fHbp (V1.p1), wild type (Neisseria meningitidis) (UniProt Q9JXV4)
[14] = target: V3 fHbp (V3.p28), wild type (Neisseria meningitidis) (UniProt E6MV22); remark: listed apart in the source
[15] = target: V2 fHbp Glu262 mutant (to Ala) (Neisseria meningitidis); remark: listed apart in the source
[16] = target: V1 fHbp Ile196-Ala (Neisseria meningitidis)
[17] = target: V2 fHbp Lys264 mutant (to Ala) (Neisseria meningitidis); remark: listed apart in the source
[18] = target: V1 fHbp Gln193-Ala (Neisseria meningitidis)
[19] = target: V2 fHbp Gln191 mutant (to Ala) (Neisseria meningitidis); remark: listed apart in the source
[20] = target: V2 fHbp Leu199 mutant (to Ala) (Neisseria meningitidis); remark: listed apart in the source
[21] = target: V1 fHbp Phe194-Ala (Neisseria meningitidis)
[22] = target: V2 fHbp Thr304 mutant (to Ala) (Neisseria meningitidis); remark: listed apart in the source
[23] = target: V2 fHbp Lys268 mutant (to Ala) (Neisseria meningitidis); remark: listed apart in the source
[24] = target: V1 fHbp His203-Ala (Neisseria meningitidis)
[25] = target: V1 fHbp Arg195-Ala (Neisseria meningitidis)
[26] = target: V1 fHbp Lys191-Ala (Neisseria meningitidis)
[27] = target: V2 fHbp Ser302 mutant (to Ala) (Neisseria meningitidis); remark: listed apart in the source
[28] = target: V2 fHbp Val196 mutant (to Ala) (Neisseria meningitidis); remark: listed apart in the source
[29] = target: V2 fHbp His203 mutant (to Ala) (Neisseria meningitidis); remark: listed apart in the source
[30] = target: V2 fHbp Val311 mutant (to Ala) (Neisseria meningitidis); remark: listed apart in the source
[31] = target: V1 fHbp (V1.p1), wild type (Neisseria meningitidis) (UniProt Q9JXV4); remark: listed apart in the source
[32] = target: V3 fHbp Asn123 mutant (to Ala) (Neisseria meningitidis)
[33] = target: V3 fHbp Gly49 mutant (to Ala) (Neisseria meningitidis) (UniProt E6MV22)
[34] = target: V3 fHbp Leu117 mutant (to Ala) (Neisseria meningitidis)
[35] = target: V3 fHbp Thr128 mutant (to Ala) (Neisseria meningitidis)
[36] = target: V3 fHbp Gln134 mutant (to Ala) (Neisseria meningitidis) (UniProt E6MV22)
[37] = target: V3 fHbp (V3.p28), wild type (Neisseria meningitidis) (UniProt E6MV22); remark: listed apart in the source
[38] = target: V3 fHbp Lys32 mutant (to Ala) (Neisseria meningitidis)
[39] = target: V3 fHbp Pro125 mutant (to Ala) (Neisseria meningitidis)
[40] = target: V3 fHbp Val91 mutant (to Ala) (Neisseria meningitidis)
[41] = target: V3 fHbp Val114 mutant (to Ala) (Neisseria meningitidis)
[42] = target: V3 fHbp His190 mutant (to Ala) (Neisseria meningitidis)
[43] = target: V3 fHbp Gln87 mutant (to Ala) (Neisseria meningitidis) (UniProt E6MV22)
[44] = target: V3 fHbp Pro46 mutant (to Ala) (Neisseria meningitidis)
[45] = target: V3 fHbp Asp43 mutant (to Ala) (Neisseria meningitidis)
[46] = target: V3 fHbp Ser44 mutant (to Ala) (Neisseria meningitidis)
[47] = target: V3 fHbp Ile122 mutant (to Ala) (Neisseria meningitidis)
[48] = target: V3 fHbp Leu98 mutant (to Ala) (Neisseria meningitidis)
[49] = target: V3 fHbp Ala99Glu (Neisseria meningitidis)
[50] = target: V3 fHbp Lys127 mutant (to Ala) (Neisseria meningitidis)
[51] = target: V3 fHbp Asp92 mutant (to Ala) (Neisseria meningitidis)
[52] = target: V3 fHbp Ile96 mutant (to Ala) (Neisseria meningitidis)

With “human factor H CCP 6 and 7 (fH67) (domain or fragment)” the Kd [1] was 2.15 nM and 1.85 nM, the Kd [2] was 2.95 nM and the Kd [3] was 5.3 nM. It also gave a Kd [4] of 9.05 nM, a Kd [5] of 2.6 nM and a Kd [6] of 15.5 nM. It also gave a Kd [7] of 8.2 nM, a Kd [8] of 2.25 nM and a Kd [9] of 4.05 nM. It also gave a Kd [10] of 23 nM, a Kd [11] of 2.65 nM and a Kd [12] of 7.45 nM. The Kd [13] was 2.85 nM, the Kd [14] was 2.8 nM and 3 nM and 2.9 nM and the Kd [15] was 5.6 nM and 5 nM. For the same substance, the Kd [16] was 1.4 nM and 1.6 nM, the Kd [17] was 9.5 nM and 8.6 nM and the Kd [18] was 5.3 nM and 4.2 nM. The Kd [19] was 2.7 nM and 2.5 nM, the Kd [20] was 16 nM and 15 nM and the Kd [21] was 6 nM and 6.3 nM. The Kd [22] was 7.9 nM and 8.5 nM, the Kd [23] was 2.3 nM and 2.2 nM and the Kd [24] was 1.4 nM and 2 nM. The Kd [25] was 360 nM and 75 nM, the Kd [26] was 4.5 nM and 3.8 nM and the Kd [27] was 3.7 nM and 4.4 nM. The Kd [28] was 32 nM and 14 nM, the Kd [29] was 2.5 nM and 2.8 nM and the Kd [30] was 7 nM and 7.9 nM. For the same substance, the Kd [31] was 2.7 nM and 3.1 nM and 2.6 nM, the Kd [32] was 7.4 nM and 8.6 nM and the Kd [33] was 3 nM. For the same substance, the Kd [34] was 5.2 nM, the Kd [35] was 4 nM and 4.4 nM and the Kd [36] was 2.6 nM and 2.7 nM. For the same substance, the Kd [37] was 2.4 nM and 2.3 nM, the Kd [38] was 3 nM and the Kd [39] was 3.2 nM and 3.4 nM. For the same substance, the Kd [40] was 5.6 nM and 6.5 nM, the Kd [41] was 3.2 nM and 3.3 nM and the Kd [42] was 3.4 nM and 3.3 nM. For the same substance, the Kd [43] was 0.71 nM and 0.72 nM, the Kd [44] was 0.026 nM and 0.03 nM and the Kd [45] was 3 nM and 3.4 nM. The Kd [46] was 10 nM and 9.8 nM, the Kd [47] was 9.4 nM and 11 nM and the Kd [48] was 86 nM and 88 nM. The Kd [49] was 79 nM and 70 nM, the Kd [50] was 2.9 nM and 3 nM and the Kd [51] was 4.7 nM and 4.8 nM. For the same substance, the Kd [52] was 14 nM and 15 nM.
